# Patent publication US20260159596A1 (SELECXINE, published 2026)
# Where a chain is given by its changes, count along the chain named.
# B1: anti-DR3 scFv clone 2-10 (phage display) (scFv, V domains shown)
# VH: QVQLVQSGAEVKKPGASVKVSCKASGYTFTSYGISWVRQAPGQGLEWMGWISAYNGNTNYAQKLQGRVTMTTDTSTSTAYMELRSLRSDDTAVYYCASGPDYGMLDYWGQGTLVTVS
# VL: EIVMTQSPSSLPASVGDRVTITCQASQDISNYLNWYQQKPGKAPKLLIYDASNLETGVPSRFSGSGSGTDFTFTISSPQPEDIATYYCQQYDNLPLTFGGGTKVEIK
# B2: anti-DR3 2-10 monoclonal antibody (antibody, V domains shown)
# VH: B1 VH
# VL: B1 VL
# notes: Human IgG (detected with anti-human IgG Fc); also called 2-10 mAb; clone 2-10
# B3: anti-DR3 scFv clone 6-15 (phage display) (scFv, V domains shown)
# VH: QVQLVQSGGGLVQPGGSLRLSCAASGFTFSSYSMNWVRQAPGKGLEWVSYISSSSSTIYYADSVKGRFTISRDNAKNSLYLQMNSLRAEDTAVYYCARWDGYCSGGSCYSGMDYWGQGTLVTVS
# VL: B1 VL with E1D, V3E, P12S, R18K, F71S, P78L
# B4: anti-DR3 6-15 monoclonal antibody (antibody, V domains shown)
# VH: B3 VH
# VL: B1 VL with E1D, V3E, P12S, R18K, F71S, P78L
# notes: Human IgG; also called 6-15 mAb; clone 6-15
# B5: recombinant DR3 (DR3-His tag) (receptor, human, UniProt Q93038 25-199, looked up)
# chain: QGGTRSPRCDCAGDFHKKIGLFCCRGCPAGHYLKAPCTEPCGNSTCLVCPQDTFLAWENHHNSECARCQACDEQASQVALENCSAVADTRCGCKPGWFVECQVSQCVSSSPFYCQPCLDCGALHRHTRLLCSRRDTDCGTCLPGFYEHGDGCVSCPTSTLGSCPERCAAVCGWRQ
# notes: it is treated as the same reagent; also called rDR3; death receptor 3; not shown: His tag
# B6: anti-DR3 4-4 monoclonal antibody (subclass not stated) (antibody, V domains shown)
# VH: EVQLVESGGGLVKPGGSLRLSCAASGFTFSDYYMSWIRQAPGKGLEWVSYISSSSSYTNYADSVKGRFTISRDNAKNSLYLQMNSLRAEDTAVYYCASNVDTAMVGAFDIWGQGTLVTVS
# VL: DIEMTQSPSSVSASVGDTVTITCRASQHISNWLAWYQQKPGQAPKFLIYTASNLQSGVPSRFSGSGYGTDFTLTISGLQPEDFATYYCQQADSFPLTFGGGTKVDIK
# notes: also called 4-4 mAb; clone 4-4
# B7: clone 4-4 IgG1 monoclonal antibody (antibody, V domains shown)
# VH: B6 VH
# VL: B6 VL
# notes: IgG1 subclass; also called anti-DR3 4-4 IgG1 antibody
# B8: clone 4-4 IgG2 monoclonal antibody (antibody, V domains shown)
# VH: B6 VH
# VL: B6 VL
# notes: IgG2 subclass
# B9: anti-DR3 scFv clone 4-4 (phage display) (scFv, V domains shown)
# VH: B6 VH
# VL: B6 VL
# B10: anti-DR3 4-4 IgG4 monoclonal antibody (antibody, V domains shown)
# VH: EVQLVESGGGLVKPGGSLRLSCAASGFTFSDYYMSWIRQAPGKGLEWVSYISSSSSYTNYADSVKGRFTISRDNAKNSLYLQMNSLRAEDTAVYYCASNVDTAMVGAFDIWGQGTLVTVSS
# VL: DIEMTQSPSSVSASVGDTVTITCRASQHISNWLAWYQQKPGQAPKFLIYTASNLQSGVPSRFSGSGYGTDFTLTISGLQPEDFATYYCQQADSFPLTFGGGTKVDIKR
# notes: also called clone 4-4 IgG4; human 4-4 IgG4P mAb
# B11: anti-DR3 3-18 monoclonal antibody (antibody, V domains shown)
# VH: QVQLQQSGPGLVKPSETLSLTCTVSGGSISSSSYYWGWIRQPPGKGLEWIGSIYYSGSTYYNPSLKSRVTISVDTSKNQFSLKLSSVTAADTAVYYCARQVSGPLDYWGQGTLVTVS
# VL: DIVMTQSPSSLSASVGDRVTITCRASQGIRNDLGWYQQKPGKAPKLLIYAASSLQSGVPSRFSGSGSGTDFTLTISSLQPEDFATYYCLQDYNYPRTFGQGTKVEIK
# notes: Human IgG; also called 3-18 mAb; clone 3-18
# B12: anti-DR3 scFv clone 3-18 (phage display) (scFv, V domains shown)
# VH: B11 VH
# VL: B11 VL
# Assays:
# [1] = biological target: B5; experiment: phage ELISA of single scFv clones on recombinant DR3
# [2] = biological target: B5; experiment: SPR, Biacore T100, DR3-His tag immobilized on CM5 chip
# Method: (§1) SPR was performed using monoclonal antibodies from the clones selected in Example 1. After immobilizing 10 μg/ml DR3-His tag on a CM5 chip, the binding specificity and binding strength were measured using Biacore T100 under the conditions of a contact time of 30 sec and a flow rate of […].
# [3] = biological target: B5; experiment: ELISA, DR3-His tag on Ni plate, anti-human IgG Fc HRP
# Method: The functionally best subclass of the anti-DR3 4-4 antibody identified as the best in Example 2 was analyzed. For this purpose, as anti-DR3 4-4 antibodies, clone 4-4 IgG1, clone 4-4 IgG2, and clone 4-4 IgG4 monoclonal antibodies were prepared according to IgG subclass, and ELISA was performed to compare the binding affinity to DR3. Specifically, 0.4 μg/ml DR3-His tag was put into and mixed with PBS, and then a Ni plate was coated with a total of 50 μl of the mixed solution. Thereafter, to prevent non-specific binding, the Ni plate was mixed with 200 μl of PBS consisting of 5% FBS and incubated at room temperature for 30 minutes, and incubated for 30 minutes by titrating the monoclonal antibody. The degree of binding between the coated DR3 and the monoclonal antibody was detected with anti-human IgG Fc HRP. The plate was washed five times with 250 μl of 0.1% Tween 20 at each step.
# [4] = biological target: T1, DR3 expressed on the cell surface (DR3 stable cell line) (human, UniProt Q93038 25-417); experiment: FACS on DR3 stable cell line, 2 ug/ml antibody, anti-human IgG PE
# T1 construct: whole, on cells; also called DR3 natural form; human DR3
# T1 sequence (looked up): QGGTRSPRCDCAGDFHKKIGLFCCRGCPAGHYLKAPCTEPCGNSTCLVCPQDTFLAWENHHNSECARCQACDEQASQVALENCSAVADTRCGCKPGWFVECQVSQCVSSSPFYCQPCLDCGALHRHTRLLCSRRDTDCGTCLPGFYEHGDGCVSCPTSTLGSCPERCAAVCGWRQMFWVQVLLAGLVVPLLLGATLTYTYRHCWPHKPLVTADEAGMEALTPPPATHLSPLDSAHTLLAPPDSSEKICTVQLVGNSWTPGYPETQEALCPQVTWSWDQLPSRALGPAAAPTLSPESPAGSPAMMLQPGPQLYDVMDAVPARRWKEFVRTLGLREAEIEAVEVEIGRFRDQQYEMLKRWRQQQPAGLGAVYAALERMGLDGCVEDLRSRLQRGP
# Method: FACS was performed using monoclonal antibodies from the clones selected in Example 1. Specifically, a DR3 stable cell line at a concentration of 0.2×10⁶ was mixed with 2 μg/ml monoclonal antibody and incubated at 4° C. for 30 minutes, and the degree of binding between the DR3 stable cell line and the monoclonal antibody was confirmed by FACS analysis using anti-human IgG PE. For each step, cells were washed once with 200 μl of PBS. Isotype control was used as a negative control.
# [5] = biological target: T2, TL1A (tumor necrosis factor-like ligand 1A), His tag (human, UniProt O95150 72-251); experiment: SPR, Biacore T100, DR3-His tag immobilized on CM5 chip; TL1A as reference
# T2 construct: also called TL1A His tag; TL1A-His tag; not shown: His tag
# T2 sequence (looked up): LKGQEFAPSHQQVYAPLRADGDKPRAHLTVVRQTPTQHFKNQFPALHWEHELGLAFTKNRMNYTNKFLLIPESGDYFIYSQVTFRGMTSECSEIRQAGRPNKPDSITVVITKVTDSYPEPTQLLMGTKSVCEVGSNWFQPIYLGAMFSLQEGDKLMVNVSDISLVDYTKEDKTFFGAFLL
# Method: as §1
Binder,binding result [1],binding result [3],other results
B1,binds,,
B2,,,binding result [2]: binds
B3,binds,,
B4,,binds,binding result [4]: binds
B5,,,binding result [5]: binds
B6,,,binding result [2]: binds; binding result [4]: binds
B7,,binds,
B8,,binds,
B9,binds,,
B10,,binds,
B11,,,binding result [2]: binds
B12,binds,,
